The source of these data is US20110262452A1 (Genentech, published 2011).

For test [1], the target named is T1, Hepsin (human), recombinant, active (human, UniProt P05981 45-417).
T1 construct: In the Octet and ELISA assays it was biotinylated with Sulfo-NHS-LC-Biotin; also called human hepsin; active hepsin
The test is described as follows: BLI (Octet RED), biotinylated hepsin on streptavidin sensor, Fab25 in solution, 1:1 fit. The method, then: Fab25 binding to hepsin: An Octet-RED system equipped with streptavidin SBC biosensor tips was purchased from ForteBio (Menlo Park, Calif.). Prior to the start of the experiment, the sensor tips were pre-wet for 15 minutes at 25° C. in a buffer containing 50 mM Hepes pH 7.5, 150 mM NaCl and 0.05% tween-20. Biotinylated hepsin (7.5 μg/ml) was captured on to the streptavidin sensor for 5 minutes with agitation at 1000 rpm. The sensors were briefly washed in buffer before dipping them on to the sample wells containing Fab25 (2-fold serial dilution starting from 200 nM) and buffer control. Association was monitored for 10 minutes and dissociation was followed for 30 minutes. The data was fit to 1:1 binding model using Octet-RED analysis software.
On the technique in general: Biolayer interferometry detects binding as a change in optical thickness at a sensor tip.

The target of test [2] is T1, Hepsin (human), recombinant, active. Nature of the test: enzyme inhibition, S2765 substrate (ratio of Ki app). The method, then:
(§1) Enzymatic assays with synthetic substrates: Fab25, IgG25, control Fab, or control IgG were incubated with hepsin (1 nM for human and 2 nM for mouse hepsin) in Hepes buffer (20 mM Hepes, pH 7.5, 150 mM NaCl, 5 mM CaCl₂, 0.01% Triton X-100) for 40 min at room temperature. For experiments with 3,4-dichloro-isocoumarin (DCI), hepsin (1 nM) was incubated with DCI in Hepes buffer containing 0.5% DMSO for 40 min. S2765 was added (final concentration of 0.2 mM) and the linear rates of the increase in absorbance at 405 nm measured on a kinetic microplate reader (Versamax, Molecular Devices, Sunnyvale, Calif.). Data were expressed as fractional enzyme activity (vᵢ/vₒ) and fitted to a four parameter regression curve fitting program (Kaleidagraph Version 3.6, Synergy Software) to determine the IC₅₀ values. Values are the average±SD of three independent experiments. Kᵢ^app values for Fab25 and IgG25 were calculated by fitting the data to the equation for tight binding inhibition systems (Morrison, 1969; Olivero et al., 2005).

The target of test [3] is mouse hepsin extracellular domain (Ser45-Pro416) with C-terminal His-tag (mouse) (UniProt O35453). Nature of the test: enzyme inhibition, S2765 substrate, tight binding inhibition fit (Ki app); Fab25, murine hepsin.
Test [4] concerns the target T1, Hepsin (human), recombinant, active. Nature of the test: isothermal titration calorimetry, Fab25 titrated into active hepsin. The method, then:
FIG. 18: Isothermal titration calorimetric experiment of Fab25 binding to active hepsin. The association reaction is exothermic and the stoichiometry of binding is 1:1 as expected.
Isothermal Titration calorimetry: TC experiments were performed on a ITC₂₀₀ instrument (GE healthcare). Fab25 and hepsin were purified separately on a size exclusion chromatographic column (Superdex S200, GE healthcare), using a buffer containing 50 mM HEPES pH 7.5 and 150 mM NaCl. The sample cell (204 μl) was loaded with hepsin (14 μM) and the Fab25 concentration in the syringe was 138 μM. A titration experiment typically consisted of 20 injections, each of 2 μL volume and 180 sec duration, with a 3 min interval between additions. The stirring rate was 1000 rpm. Raw data were integrated, corrected for nonspecific heats, normalized for concentration, and analyzed according to a 1:1 binding model assuming a single set of identical binding sites. (The isothermal titration curve was registered and analyzed using ORIGIN software provided with the ITC instrument. The data were integrated to provide a titration curve; and, by using a nonlinear least-squares fit, the binding constant KA, the heat of binding (ΔH), and the stoichiometry of binding were extracted from the curve.
A general note: In ITC the heat of successive injections is recorded.

Test [5] shares this target. The test is described as follows: cell-based or functional assay.
The target of test [6] is mouse hepsin extracellular domain (Ser45-Pro416) with C-terminal His-tag (mouse) (UniProt O35453).
The target of test [7] is T1, Hepsin (human), recombinant, active. Nature of the test: cell-based or functional assay. This is another data set of the same source.
Test [8] has the same target. The test is described as follows: enzyme inhibition, S2765 substrate, tight binding inhibition fit (Ki app); Fab25, human hepsin. The method, then:
as §1

The next test deals with pro-hepsin (UniProt P05981 45-417, limits assumed). The test is described as follows: SPR (BIAcore 3000), Ab25 captured on CM5 chip, pro-hepsin injected, steady state analysis. The method, then: (§2) FIG. 17: A. Surface plasmon resonance was used to measure the binding affinity of Ab25 with active human hepsin. Serial dilutions of hepsin (0.39 nM to 200 nM) were injected to a CM5 biosensor chip with captured Ab25 for 3 minutes and the dissociation was monitored for 15 minutes. […] Serial dilutions of pro-hepsin (195 nM to 80 μM) were injected to a CM5 biosensor chip with captured Ab25 for 2 minutes.
(§3) Binding of Ab25 to hepsin by surface plasmon resonance: Surface plasmon resonance measurements were performed on a BIAcore™-3000 instrument (GE Health Care, NJ) to determine binding affinity of the Ab25. Rabbit anti-human IgG were chemically immobilized (amine coupling) on CM5 biosensor chips and Ab25 was captured to give approximately 350 response units (RU). For kinetics measurements, two-fold serial dilutions of active hepsin (1 nM to 500 nM) were injected in HBS-P buffer at 25° C. with a flow rate of 30 μl/min. Association rates (kₐ) and dissociation rates (kd) were obtained by using a simple one-to-one Langmuir binding model (BIA-Evaluation) and the equilibrium dissociation constants (KD) were calculated (kd/kₐ). Due to rapid kinetics, a steady state measurement was used to determine the affinity of pro-hepsin with Ab25. […] The values of Req were calculated and plotted individually against C (concentration of pro-hepsin) using BIA-Evaluation to determine KD.
Background: Surface plasmon resonance follows binding to a sensor surface in real time, without labels.

Test [9] addresses T1, Hepsin (human), recombinant, active. Nature of the test: enzyme inhibition, S2765 substrate, tight binding inhibition fit (Ki app); IgG25, not Fab; human hepsin. How it is done:
as §1

For test [10] the target is unchanged. The test is described as follows: SPR (BIAcore 3000), Ab25 captured by anti-human IgG on CM5 chip, active human hepsin injected, 1:1 fit. How it is done:
as §2, §3

For test [11] the target is unchanged. Nature of the test: phage competition ELISA: biotin-hepsin immobilised on NeutrAvidin plates, bound Fab25-phage detected with anti-M13-HRP, KD1 titrated as competitor of Fab25-phage.

T1 sequence (P05981 45-417 limits assumed): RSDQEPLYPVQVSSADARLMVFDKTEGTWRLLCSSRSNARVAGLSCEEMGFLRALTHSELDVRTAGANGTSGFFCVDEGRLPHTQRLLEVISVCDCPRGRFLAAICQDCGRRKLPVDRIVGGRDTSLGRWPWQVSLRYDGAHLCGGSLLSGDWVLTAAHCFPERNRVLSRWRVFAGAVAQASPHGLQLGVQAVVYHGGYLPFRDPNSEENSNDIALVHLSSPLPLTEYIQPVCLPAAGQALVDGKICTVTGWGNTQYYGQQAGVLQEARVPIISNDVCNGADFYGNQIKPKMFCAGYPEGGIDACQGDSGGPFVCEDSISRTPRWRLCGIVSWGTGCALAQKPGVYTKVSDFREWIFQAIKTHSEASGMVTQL
Sequence of pro-hepsin (P05981 45-417 limits assumed): as above

B1: anti-hepsin antibody Fab25 (Fab, V domains shown)
VH: EVQLVESGGGLVQPGGSLRLSCAASGFNFSYSYMHWVRQAPGKGLEWVASIYSYYGSTYYADSVKGRFTISADTSKNTAYLQMNSLRAEDTAVYYCARSDSWSYKSGYTQKIYSKGLDYWGQGTLVTVSS
VL: DIQMTQSPSSLSASVGDRVTITCRASQSVSSAVAWYQQKPGKAPKLLIYSASSKGVPSRFSGSRSGTDFTLTISSLQPEDFATYYCQQYYSSYYLLTFGQGTKVEIK
notes: also called HpsFab25; Clone 25 (Fab form)
As usually defined, the Kd is the equilibrium constant for the complex coming apart. On to B1, for which the Kd turned out to be 2.55 nM in test [1] and 6.1 nM in [4]. The “fold more potent inhibition than of murine hepsin” value in test [2] was around 80 fold. The results for the Ki in test [3] and in [8] were 329 nM and 4.1 nM, respectively. The stoichiometry of binding in [4] was determined as 1 Fab25 per hepsin. Further, the figures for the “IC50 (read off the curve)” value in test [5] and in [6] were around 5 nM and 300 nM, respectively. Besides, the “IC50 of hepsin-mediated pro-uPA activation (two-stage enzymatic assay)” value in [7] amounted to 3.3 nM.

B2: anti-hepsin antibody IgG25 (antibody, V domains shown)
VH: EVQLVESGGGLVQPGGSLRLSCAASGFNFSYSYMHWVRQAPGKGLEWVASIYSYYGSTYYADSVKGRFTISADTSKNTAYLQMNSLRAEDTAVYYCARSDSWSYKSGYTQKIYSKGLDYWGQGTLVTVSS
VL: DIQMTQSPSSLSASVGDRVTITCRASQSVSSAVAWYQQKPGKAPKLLIYSASSKGVPSRFSGSRSGTDFTLTISSLQPEDFATYYCQQYYSSYYLLTFGQGTKVEIK
notes: also called Ab25; mab 25
On to B2, for which the Kd came to 5520 nM with pro-hepsin and 10.6 nM in [10]. The Ki in [9] was 11.3 nM.

B3: Kunitz domain inhibitor-1 (KD1) derived from HGFA-inhibitor-1 (HAI-1) (other, UniProt O43278 246-303, looked up)
chain: TEDYCLASNKVGRCRGSFPRWYYDPTEQICKSFVYGGCLGNKNNYLREEECILACRGV
For B3, in test [11], the “IC50 (read off the curve)” value is around 0.2 nM.
